Results reported in patent publication US20220389394A1.
Like-named read-outs stand apart in the source and are kept apart here.

Legend:
[1] = biological target: human FLT3 on the AML5 cell line (human) (UniProt P36888); assay: cell-based or functional assay
[2] = biological target: mouse FLT3 on the M1 cell line (mouse) (UniProt Q00342); assay: cell-based or functional assay
[3] = biological target: biotinylated recombinant human FcγRI protein (Sino Biological) (human) (UniProt P12314); assay: AlphaScreen competition; biotinylated FcγRI, competitor human IgG acceptor beads, 4PL fit
Chain of biotinylated recombinant human FcγRI protein (Sino Biological) (human) (P12314 16-288 limits assumed): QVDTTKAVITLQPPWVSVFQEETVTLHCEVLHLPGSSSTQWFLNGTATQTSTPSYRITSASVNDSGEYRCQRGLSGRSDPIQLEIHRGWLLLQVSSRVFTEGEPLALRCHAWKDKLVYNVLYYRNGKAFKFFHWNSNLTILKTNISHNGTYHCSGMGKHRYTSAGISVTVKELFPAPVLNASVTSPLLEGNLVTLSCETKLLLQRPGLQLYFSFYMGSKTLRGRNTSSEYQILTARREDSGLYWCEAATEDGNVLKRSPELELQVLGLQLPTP

[4] = biological target: biotinylated recombinant human FcγRIIIa (Val 176 variant) protein (Sino Biological) (human) (UniProt P08637); assay: AlphaScreen competition; biotinylated FcγRIIIa (Val 176 variant), competitor human IgG acceptor beads, 4PL fit
Chain of biotinylated recombinant human FcγRIIIa (Val 176 variant) protein (Sino Biological) (human) (P08637 other isoform, or with tags, fused parts or gaps mutant limits assumed): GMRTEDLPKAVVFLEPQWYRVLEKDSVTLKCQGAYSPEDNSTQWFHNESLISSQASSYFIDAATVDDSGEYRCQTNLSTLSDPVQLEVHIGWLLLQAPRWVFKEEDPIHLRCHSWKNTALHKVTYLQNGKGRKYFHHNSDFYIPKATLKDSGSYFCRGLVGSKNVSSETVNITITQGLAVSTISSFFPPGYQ

[5] = biological target: recombinant human C1q protein (Fitzgerald) (human) (UniProt P02745); assay: ELISA; serially diluted test article immobilized, recombinant human C1q added, anti-C1q-HRP, 4PL fit
Chain of recombinant human C1q protein (Fitzgerald) (human) (P02745 23-245 limits assumed, chain 1 of 3): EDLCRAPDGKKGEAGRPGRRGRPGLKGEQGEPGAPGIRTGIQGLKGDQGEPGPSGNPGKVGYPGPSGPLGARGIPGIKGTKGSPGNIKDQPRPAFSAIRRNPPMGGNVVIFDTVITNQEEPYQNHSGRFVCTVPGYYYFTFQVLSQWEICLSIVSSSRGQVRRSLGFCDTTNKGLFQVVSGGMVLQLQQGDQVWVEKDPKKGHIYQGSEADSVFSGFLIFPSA
Chain of recombinant human C1q protein (Fitzgerald) (human) (P02746 28-253 limits assumed, chain 2 of 3, further chain): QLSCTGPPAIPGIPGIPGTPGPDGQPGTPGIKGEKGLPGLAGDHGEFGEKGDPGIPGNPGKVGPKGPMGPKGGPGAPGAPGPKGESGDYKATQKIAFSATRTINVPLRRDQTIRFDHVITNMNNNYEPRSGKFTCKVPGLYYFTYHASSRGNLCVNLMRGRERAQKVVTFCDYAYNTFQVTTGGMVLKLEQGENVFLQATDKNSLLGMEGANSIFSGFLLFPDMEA
Chain of recombinant human C1q protein (Fitzgerald) (human) (P02747 29-245 limits assumed, chain 3 of 3, further chain): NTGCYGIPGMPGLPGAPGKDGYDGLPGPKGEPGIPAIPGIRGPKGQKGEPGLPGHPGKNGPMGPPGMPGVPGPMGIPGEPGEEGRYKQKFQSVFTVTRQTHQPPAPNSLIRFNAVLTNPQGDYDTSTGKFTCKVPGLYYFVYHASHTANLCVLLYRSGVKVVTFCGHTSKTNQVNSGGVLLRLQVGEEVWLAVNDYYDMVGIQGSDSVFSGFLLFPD

[6] = biological target: recombinant human FcRn (human) (UniProt P55899); assay: ELISA; recombinant human FcRn coated, serially diluted test article, anti-human (H+L)-HRP, 4PL fit
Chain of recombinant human FcRn (human) (P55899 24-297 limits assumed, chain 1 of 2): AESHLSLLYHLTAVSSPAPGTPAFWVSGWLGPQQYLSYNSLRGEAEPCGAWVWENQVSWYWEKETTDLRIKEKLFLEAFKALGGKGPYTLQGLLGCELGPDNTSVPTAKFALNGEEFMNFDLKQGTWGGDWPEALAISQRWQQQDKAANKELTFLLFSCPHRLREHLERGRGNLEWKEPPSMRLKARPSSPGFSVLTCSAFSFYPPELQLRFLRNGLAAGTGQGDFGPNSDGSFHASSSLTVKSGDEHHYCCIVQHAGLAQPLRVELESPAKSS
Chain of recombinant human FcRn (human) (chain, as listed by the source limits assumed, chain 2 of 2): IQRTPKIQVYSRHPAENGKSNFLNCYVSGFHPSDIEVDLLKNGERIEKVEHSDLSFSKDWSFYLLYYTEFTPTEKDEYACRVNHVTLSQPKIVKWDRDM

[7] = biological target: recombinant human C1q protein (Fitzgerald) (human) (UniProt P02745); assay: ELISA; serially diluted test article immobilized, recombinant human C1q added, anti-C1q-HRP, 4PL fit; remark: listed apart in the source
[8] = biological target: biotinylated recombinant human FcγRIIIa (Val 176 variant) protein (Sino Biological) (human) (UniProt P08637); assay: AlphaScreen competition; biotinylated FcγRIIIa (Val 176 variant), competitor human IgG acceptor beads, 4PL fit; remark: listed apart in the source
[9] = biological target: biotinylated recombinant human FcγRI protein (Sino Biological) (human) (UniProt P12314); assay: AlphaScreen competition; biotinylated FcγRI, competitor human IgG acceptor beads, 4PL fit; remark: listed apart in the source

Chain of mouse FLT3 on the M1 cell line (mouse) (Q00342 28-1000): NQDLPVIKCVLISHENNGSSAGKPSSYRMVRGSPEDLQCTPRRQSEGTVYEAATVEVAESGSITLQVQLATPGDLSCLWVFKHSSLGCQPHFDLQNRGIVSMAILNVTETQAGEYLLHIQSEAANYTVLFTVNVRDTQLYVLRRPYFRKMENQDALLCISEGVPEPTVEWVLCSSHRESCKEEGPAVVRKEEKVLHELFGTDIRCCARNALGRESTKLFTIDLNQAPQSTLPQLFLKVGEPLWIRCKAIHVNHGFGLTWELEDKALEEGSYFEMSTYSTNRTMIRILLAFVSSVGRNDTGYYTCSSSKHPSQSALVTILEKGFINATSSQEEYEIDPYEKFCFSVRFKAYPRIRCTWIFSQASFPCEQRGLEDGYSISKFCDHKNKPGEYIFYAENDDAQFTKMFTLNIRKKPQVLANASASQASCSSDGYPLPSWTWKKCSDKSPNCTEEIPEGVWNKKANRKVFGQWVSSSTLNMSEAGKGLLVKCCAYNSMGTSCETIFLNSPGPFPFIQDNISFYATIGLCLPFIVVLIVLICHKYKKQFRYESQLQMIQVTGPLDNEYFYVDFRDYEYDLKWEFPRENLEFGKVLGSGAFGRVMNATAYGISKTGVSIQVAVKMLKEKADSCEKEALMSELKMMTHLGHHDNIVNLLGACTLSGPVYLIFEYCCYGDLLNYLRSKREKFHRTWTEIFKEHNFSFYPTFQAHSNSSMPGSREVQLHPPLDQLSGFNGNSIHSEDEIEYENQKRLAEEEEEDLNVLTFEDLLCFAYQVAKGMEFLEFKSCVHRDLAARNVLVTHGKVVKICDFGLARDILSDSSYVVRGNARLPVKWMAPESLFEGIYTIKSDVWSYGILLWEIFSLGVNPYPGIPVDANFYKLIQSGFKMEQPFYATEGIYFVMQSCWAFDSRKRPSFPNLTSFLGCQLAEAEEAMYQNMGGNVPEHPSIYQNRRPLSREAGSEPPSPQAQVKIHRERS
Chain of human FLT3 on the AML5 cell line (human) (P36888 27-993): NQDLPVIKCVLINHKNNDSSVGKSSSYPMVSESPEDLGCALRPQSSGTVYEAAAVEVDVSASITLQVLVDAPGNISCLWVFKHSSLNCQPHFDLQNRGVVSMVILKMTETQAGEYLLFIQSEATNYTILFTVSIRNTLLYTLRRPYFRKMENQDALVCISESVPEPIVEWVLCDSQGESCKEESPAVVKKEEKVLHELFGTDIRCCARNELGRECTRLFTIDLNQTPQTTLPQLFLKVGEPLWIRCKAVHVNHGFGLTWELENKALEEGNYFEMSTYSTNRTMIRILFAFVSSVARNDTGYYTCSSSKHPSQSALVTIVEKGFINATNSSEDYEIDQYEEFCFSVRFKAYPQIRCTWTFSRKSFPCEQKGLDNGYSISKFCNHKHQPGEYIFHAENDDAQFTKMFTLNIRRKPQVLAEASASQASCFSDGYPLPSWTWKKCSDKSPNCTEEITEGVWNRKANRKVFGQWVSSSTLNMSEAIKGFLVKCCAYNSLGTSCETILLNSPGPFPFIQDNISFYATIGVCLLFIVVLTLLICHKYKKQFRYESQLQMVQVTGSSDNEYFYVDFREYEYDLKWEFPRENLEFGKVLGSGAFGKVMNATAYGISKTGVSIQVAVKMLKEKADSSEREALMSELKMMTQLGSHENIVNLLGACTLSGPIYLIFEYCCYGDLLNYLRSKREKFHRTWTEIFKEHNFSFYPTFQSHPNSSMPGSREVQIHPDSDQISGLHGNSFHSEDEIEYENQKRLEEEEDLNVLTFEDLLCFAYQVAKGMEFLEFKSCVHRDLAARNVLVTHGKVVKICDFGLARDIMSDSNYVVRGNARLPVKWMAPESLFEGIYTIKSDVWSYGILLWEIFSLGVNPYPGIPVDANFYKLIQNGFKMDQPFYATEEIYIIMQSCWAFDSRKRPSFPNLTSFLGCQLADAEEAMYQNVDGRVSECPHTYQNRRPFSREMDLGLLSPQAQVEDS

Substance	EC50 (nM), AML5 proliferation [1] [nM]	EC50 (nM), M1 IL-6 release assay [2] [nM]	Emax (pg/ml), M1 IL-6 release assay [2] [pg/mL]	EC50 [3] [nM]	EC50 [4] [nM]	EC50 [5] [nM]	EC50 [6] [nM]	EC50 [7] [nM]	EC50 [8] [nM]	EC50 [9] [nM]
recombinant human FLT3-ligand (from UniProt P49771 27-185)	0.039	0.024	392	–	–	–	–	–	–	–
human IgG4 isotype antibody	–	–	–	13.6	368	13.7	25.9	16.7	326	14.5
recombinant human FLT3-ligand human IgG1 fusion protein (Fc fusion)	–	0.117	517	–	–	–	–	–	–	–
human IgG1 isotype antibody	–	–	–	4.44	38.8	–	4.46	–	32.1	5.25
